In paper PMC7002446:

Biological target: transferrin receptor 1 (TfR1) (human (endogenous in gastric cancer patient tissue and human GC cell lines)) (UniProt P02786)
Sequence (P02786 whole entry): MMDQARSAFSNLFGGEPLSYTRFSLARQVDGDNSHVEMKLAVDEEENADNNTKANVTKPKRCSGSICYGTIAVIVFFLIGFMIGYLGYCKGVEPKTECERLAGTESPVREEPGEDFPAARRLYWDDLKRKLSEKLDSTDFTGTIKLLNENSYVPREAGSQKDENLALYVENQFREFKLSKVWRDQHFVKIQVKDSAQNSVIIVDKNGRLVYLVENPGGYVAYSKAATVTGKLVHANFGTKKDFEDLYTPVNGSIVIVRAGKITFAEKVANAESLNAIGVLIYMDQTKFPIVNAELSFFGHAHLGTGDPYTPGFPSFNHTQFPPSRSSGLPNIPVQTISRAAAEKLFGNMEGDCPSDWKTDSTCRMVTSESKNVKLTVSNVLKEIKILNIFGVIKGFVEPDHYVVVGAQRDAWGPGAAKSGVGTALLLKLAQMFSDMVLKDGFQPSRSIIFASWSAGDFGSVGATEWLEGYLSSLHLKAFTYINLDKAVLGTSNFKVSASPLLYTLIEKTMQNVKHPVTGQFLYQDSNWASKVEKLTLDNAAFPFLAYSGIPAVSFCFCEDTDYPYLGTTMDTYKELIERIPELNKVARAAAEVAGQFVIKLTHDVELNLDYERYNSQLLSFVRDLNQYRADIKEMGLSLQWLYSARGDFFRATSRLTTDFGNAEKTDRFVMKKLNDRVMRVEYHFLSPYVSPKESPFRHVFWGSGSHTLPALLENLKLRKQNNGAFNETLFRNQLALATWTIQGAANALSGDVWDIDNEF

Chain of doxorubicin-loaded HFn nanocarrier (HFn-Dox) (P02794 whole entry): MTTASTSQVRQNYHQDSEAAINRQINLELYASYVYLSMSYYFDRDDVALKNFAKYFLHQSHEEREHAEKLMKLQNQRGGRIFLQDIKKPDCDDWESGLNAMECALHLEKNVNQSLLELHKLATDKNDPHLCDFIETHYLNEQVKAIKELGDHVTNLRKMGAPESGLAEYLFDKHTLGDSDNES

tumor growth inhibition (TGI) rate in TfR1-positive GC-PDX mouse models treated with HFn-Dox (against 41.6% for free Dox): 91.1%
Substance: doxorubicin-loaded HFn nanocarrier (HFn-Dox) (from UniProt P02794 1-183) (natural protein)
